Measured values taken from patent EP1222208B1 (THE GENERAL HOSPITAL CORPORATION, dated 2008).
Several values for one entry are separate records, joined by “and”; a condition that tells them apart may be missing. Equal values may be shown once. Square brackets hold non-standard residues; d marks the D form. Ends that are not written are not given here. Nle = CCCC[C@H](N)C(=O)O

T1: human PTH-1 receptor (human, UniProt Q03431 27-593)
T1 sequence (looked up): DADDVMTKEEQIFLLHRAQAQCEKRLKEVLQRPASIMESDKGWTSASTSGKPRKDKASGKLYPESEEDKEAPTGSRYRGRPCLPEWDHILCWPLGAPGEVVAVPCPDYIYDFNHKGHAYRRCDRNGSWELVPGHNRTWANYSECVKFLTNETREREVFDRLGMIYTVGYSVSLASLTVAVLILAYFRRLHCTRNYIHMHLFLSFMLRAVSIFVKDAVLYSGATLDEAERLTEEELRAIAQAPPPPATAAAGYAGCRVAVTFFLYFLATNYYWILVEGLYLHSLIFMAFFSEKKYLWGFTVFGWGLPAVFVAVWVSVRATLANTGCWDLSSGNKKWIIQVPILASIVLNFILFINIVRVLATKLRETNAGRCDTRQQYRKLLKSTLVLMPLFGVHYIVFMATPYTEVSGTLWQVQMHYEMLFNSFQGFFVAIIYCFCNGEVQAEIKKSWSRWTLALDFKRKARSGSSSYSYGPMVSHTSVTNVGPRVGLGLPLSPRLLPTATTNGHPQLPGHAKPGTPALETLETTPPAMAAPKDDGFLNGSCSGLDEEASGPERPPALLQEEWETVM

T2: rat PTH-1 receptor (rat, UniProt P25961 27-591)
T2 sequence (looked up): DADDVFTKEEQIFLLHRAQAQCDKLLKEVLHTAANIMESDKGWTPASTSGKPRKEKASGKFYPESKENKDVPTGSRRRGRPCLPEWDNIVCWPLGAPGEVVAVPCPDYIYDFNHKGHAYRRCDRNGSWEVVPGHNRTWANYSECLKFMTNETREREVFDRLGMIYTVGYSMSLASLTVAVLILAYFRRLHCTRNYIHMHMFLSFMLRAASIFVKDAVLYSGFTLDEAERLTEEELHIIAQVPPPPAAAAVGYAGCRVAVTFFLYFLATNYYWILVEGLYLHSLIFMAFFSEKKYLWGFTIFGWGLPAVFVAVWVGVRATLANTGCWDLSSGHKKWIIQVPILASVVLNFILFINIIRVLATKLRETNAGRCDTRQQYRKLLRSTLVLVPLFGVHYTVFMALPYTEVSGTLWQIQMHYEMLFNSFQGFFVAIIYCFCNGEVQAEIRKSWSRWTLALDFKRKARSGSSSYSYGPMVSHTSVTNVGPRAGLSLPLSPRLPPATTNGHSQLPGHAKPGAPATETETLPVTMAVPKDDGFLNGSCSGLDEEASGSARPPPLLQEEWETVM


These binders were tested against T1, human PTH-1 receptor (assay: cell-based or functional assay).

cAMP EC50, COS-7 cells, WT hPTH-1 receptor | cAMP Emax, COS-7 cells, WT hPTH-1 receptor [picomole/well] | Binder
-9.3 Log M and 0.0005 µM | 226 | SVSEIQLMHNLGKHLNSMERVEWLRKKLQDVHNY-NH2 [[Tyr^34]human (h)PTH(1-34)NH2]
-9.2 Log M and 0.0007 µM | 226 | AVSEIQL[Nle]HNLGKHLASVER[Nle]QWLRKKLQDVHNY-NH2 [[Nle^8,21,Tyr^34]-rPTH(1-34)NH2]

The remaining lines, values behind:

Binder | cAMP EC50, COS-7 cells, WT hPTH-1 receptor | cAMP Emax, COS-7 cells, WT hPTH-1 receptor [picomole/well]
AVAEIQLMHAR-NH2 [[A3,A10,R11]rPTH(1-11)] | -4.6 Log M and 29.1 µM | 238
AVSEIQLMHNLGKH-NH2 [native rat (r)PTH(1-14)NH2] | -3.8 Log M and 152 µM | 221
AVAEIQLMHARAKH-NH2 [[A3,A10,R11,A12]rPTH(1-14)amide] | -6 Log M and 4.66 µM | 243

Each binder was assayed against truncated human PTH-1 receptor hΔNt (human), Q03431 (assay: cell-based or functional assay).

cAMP Emax, COS-7 cells, hDeINt (picomole/well) | cAMP potency relative to native PTH(1-14), truncated hPTH-1 receptor [fold] | Binder
238 | – | SVSEIQLMHNLGKHLNSMERVEWLRKKLQDVHNY-NH2 [[Tyr^34]human (h)PTH(1-34)NH2]
243 | – | AVSEIQL[Nle]HNLGKHLASVER[Nle]QWLRKKLQDVHNY-NH2 [[Nle^8,21,Tyr^34]-rPTH(1-34)NH2]

The next lines start with the binder.

Binder | cAMP Emax, COS-7 cells, hDeINt (picomole/well) | cAMP potency relative to native PTH(1-14), truncated hPTH-1 receptor [fold]
AVAEIQLMHAR-NH2 [[A3,A10,R11]rPTH(1-11)] | 243 | –
AVSEIQLMHNLGKH-NH2 [native rat (r)PTH(1-14)NH2] | 222 | –
AVAEIQLMHARAKH-NH2 [[A3,A10,R11,A12]rPTH(1-14)amide] | 250 | 100

Target: T1, human PTH-1 receptor
Assay: cell-based or functional assay
Remark: another data set of the same source

cAMP potency relative to native PTH(1-14), LLC-PK1 cells stably expressing the hPTH-1 receptor [fold] | cAMP potency relative to native PTH(1-14), LLC-PK-1 cells stably expressing the hPTH-1 receptor [fold] | Binder
220 | – | AVAEIQLMHARAKW-NH2 [[A3,A10,R11,A12,W14]rPTH(1-14)amide]
160 | 100 | AVAEIQLMHARAKH-NH2 [[A3,A10,R11,A12]rPTH(1-14)amide]

Target: T1, human PTH-1 receptor
Assay: cell-based or functional assay
Remark: another data set of the same source

cAMP EC50, HKRK-B7 cells | Binder
-6.1 Log M and 0.8 µM | AVAEIQLMHQRAKH-NH2 [[A3,Q10,R11,A12]rPTH(1-14)]
-5.6 Log M and 2.4 µM | AVAEIQLMHARAK-NH2 [[A3,A10,R11,A12]rPTH(1-13)]
-8.4 Log M and 0.004 µM | SVSEIQLMHNLGKHLNSMERVEWLRKKLQDVHNY-NH2 [[Tyr^34]human (h)PTH(1-34)NH2]
-8.6 Log M and 0.0033 µM | AVSEIQL[Nle]HNLGKHLASVER[Nle]QWLRKKLQDVHNY-NH2 [[Nle^8,21,Tyr^34]-rPTH(1-34)NH2]

The next lines start with the binder.

Binder | cAMP EC50, HKRK-B7 cells
AVAEIQLMHAR-NH2 [[A3,A10,R11]rPTH(1-11)] | -4.8 Log M and 17.1 µM
AVSEIQLMHNLGKH-NH2 [native rat (r)PTH(1-14)NH2] | -3.9 Log M and 133 µM
AVAEIQLMHARAKW-NH2 [[A3,A10,R11,A12,W14]rPTH(1-14)amide] | -6.3 Log M and 0.6 µM
AVAEIQLMHARAKH-NH2 [[A3,A10,R11,A12]rPTH(1-14)amide] | -6.1 Log M and 0.83 µM
AVAEIQLMHARA-NH2 [[A3,A10,R11,A12]rPTH(1-12)] | -5 Log M and 10.2 µM

The binders below were run against human PTH-2 receptor (human, UniProt P49190 25-550) (assay: cell-based or functional assay).
Sequence of human PTH-2 receptor (P49190 25-550): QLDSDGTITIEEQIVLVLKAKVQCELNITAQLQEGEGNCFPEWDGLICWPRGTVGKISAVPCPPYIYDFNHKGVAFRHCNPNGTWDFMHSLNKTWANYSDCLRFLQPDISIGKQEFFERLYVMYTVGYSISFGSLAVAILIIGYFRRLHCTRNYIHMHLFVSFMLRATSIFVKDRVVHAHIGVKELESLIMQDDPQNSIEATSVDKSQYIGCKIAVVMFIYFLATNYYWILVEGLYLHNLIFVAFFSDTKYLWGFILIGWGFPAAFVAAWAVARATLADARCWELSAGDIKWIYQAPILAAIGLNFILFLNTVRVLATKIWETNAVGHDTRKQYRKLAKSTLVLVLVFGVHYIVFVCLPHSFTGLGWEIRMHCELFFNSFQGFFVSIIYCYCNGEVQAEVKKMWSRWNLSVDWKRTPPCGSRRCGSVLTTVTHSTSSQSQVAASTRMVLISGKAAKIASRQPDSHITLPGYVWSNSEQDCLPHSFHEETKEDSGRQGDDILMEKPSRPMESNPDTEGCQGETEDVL

cAMP EC50, LLC-P2R-22 cells | Binder
-4 Log M and 106 µM | AVAEIQLMHARAK-NH2 [[A3,A10,R11,A12]rPTH(1-13)]
-8.4 Log M and 0.0044 µM | AVSEIQL[Nle]HNLGKHLASVER[Nle]QWLRKKLQDVHNY-NH2 [[Nle^8,21,Tyr^34]-rPTH(1-34)NH2]

Further lines, the binder ahead of its results:

Binder | cAMP EC50, LLC-P2R-22 cells
AVAEIQLMHARAKH-NH2 [[A3,A10,R11,A12]rPTH(1-14)amide] | -3.9 Log M and 126 µM
AVAEIQLMHARA-NH2 [[A3,A10,R11,A12]rPTH(1-12)] | -3.5 Log M and 342 µM

Target: T1, human PTH-1 receptor
Assay: cell-based or functional assay
Remark: another data set of the same source

cAMP EC50, SAOS-2 cells | Binder
-9.28 Log M and 0.00052 µM | SVSEIQLMHNLGKHLNSMERVEWLRKKLQDVHNY-NH2 [[Tyr^34]human (h)PTH(1-34)NH2]

Each binder was assayed against T2, rat PTH-1 receptor (assay: cell-based or functional assay).

cAMP EC50, ROS 17/2.8 cells [Log M] | Binder
-5.5 | AVAEIQLMHARAKW-NH2 [[A3,A10,R11,A12,W14]rPTH(1-14)amide]
